Measured values: patent US20220112285A1 (UNIVERSITY OF BIRMINGHAM, published 2022)

Assays:
[1] = molecular target: the molecule itself; experiment: X-ray crystal structure; dimer believed to result from binding of the heparin oligosaccharide DP12
Protocol: The preformed G6b-B:Fab complex at 12 mg/ml, in a buffer solution of 20 mM HEPES, 75 mM NaCl, pH 7.1 was incubated for 1 hour at 4° C. with 2 mM DP12 (Iduron Cat. No. HO12). This protein sample was then microfuged at 16,000 g, for 10 minutes at 4° C., before drops were set up using 150 nl sample and 100 nl reservoir solution. Reservoir conditions were 50 mM MES pH6.2, 10% PEG 550MME, 5% glycerol, and 50 mM CaCl₂. Crystallisation plates were incubated at 20° C. and flat plate crystals appeared within 3 days. The crystal was harvested straight out of the growth drop into liquid nitrogen. Diffraction data were collected at 100K on beamline 103 at Diamond Light Source and processed by XDS1 and Aimless2 via AutoPROC3. The crystal had the space group C2 with the cell dimensions of a=183.80, b=72.34, c=131.04, alpha=90.0°, beta=124.52°, gamma=90.0°, and gave a 97% complete dataset to 3.1 Å.

[2] = molecular target: T1, recombinant monomeric human G6b-B (human, UniProt O95866 18-142, limits assumed); experiment: Fab as analyte over a G6b-B monomer channel (RU read-out; method not named), two stage reaction model
T1 construct: also called G6b-B monomer; monomeric G6b-B
T1 sequence (looked up): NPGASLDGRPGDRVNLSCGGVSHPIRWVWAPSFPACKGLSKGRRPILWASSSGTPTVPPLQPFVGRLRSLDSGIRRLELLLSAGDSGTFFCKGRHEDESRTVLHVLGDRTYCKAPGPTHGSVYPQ

[3] = molecular target: T2, recombinant dimeric human G6b-B (human, UniProt O95866 18-142, limits assumed); experiment: Fab as analyte over a G6b-B dimer channel (RU read-out; method not named), two stage reaction model
T2 construct: also called G6b-B dimer; dimeric G6b-B
T2 sequence (looked up): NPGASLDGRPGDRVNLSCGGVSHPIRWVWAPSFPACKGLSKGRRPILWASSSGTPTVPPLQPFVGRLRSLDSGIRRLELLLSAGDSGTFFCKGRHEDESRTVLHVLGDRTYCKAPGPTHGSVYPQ

[4] = molecular target: T3, mouse G6b-B (mouse, UniProt D7PDD4 18-140, limits assumed); experiment: plate binding assay (coated protein, HRP anti-mouse IgG, TMB, A450), FIG. 8
T3 construct: construct not described
T3 sequence (looked up): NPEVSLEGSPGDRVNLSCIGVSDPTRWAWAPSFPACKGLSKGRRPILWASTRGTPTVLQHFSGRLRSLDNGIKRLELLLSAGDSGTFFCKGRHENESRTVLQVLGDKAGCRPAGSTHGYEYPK
Protocol: FIG. 8—illustrates that the 17-4 antibody robustly binds to recombinant monomeric and dimeric human G6b-B, but not to mouse G6b-B in an in vitro binding assay. Wells of 96-well plate were coated with the indicated proteins overnight. Following blocking, wells were incubated with the indicated anti-G6b monoclonal antibodies (10 μg/ml) or IgG control. Antibody binding was detected with HRP-conjugated anti-mouse antibody and 3,3,5,5-tetramethylbenzidine (TMB) substrate; absorbance was measured with a plate reader at 450 nm.
Wells of 96-well Nunc MaxiSorp™ plates (Thermo Scientific) were coated overnight with 50 μl of indicated proteins, diluted in PBS at a concentration of 5 μg/ml. Plates were washed three times with Tris buffered saline (TBS) containing 0.1% Tween 20 (TBS-T) and blocked for 1.5 h at 37° C. with 2% fat free milk in TBS, 0.02% Tween 20. After one washing step, wells were incubated with the indicated anti-G6b monoclonal antibodies (10 μg/ml) or IgG control, diluted in 3% BSA in TBS-T for 1.5 h at RT. After five washing steps, wells were incubated with HRP-conjugated anti-mouse IgG antibody (Sigma) for 1 h at RT at low agitation. Plates were washed seven times and signals were developed with TMB. The reaction was stopped by addition of 2 M H₂SO₄ (50 μl/well) and absorbance at 450 nm and 570 nm (background) was measured with a Versa max plate reader (Molecular Devices).

B1: G6b-B ECD (18-133, [N32D, S67A, S68A, S69A, T71A]) (receptor, human, UniProt O95866 18-133, looked up)
chain: NPGASLDGRPGDRVDLSCGGVSHPIRWVWAPSFPACKGLSKGRRPILWAAAAGAPTVPPLQPFVGRLRSLDSGIRRLELLLSAGDSGTFFCKGRHEDESRTVLHVLGDRTYCKAPG
notes: Expressed in HEK293 6E cells and used for the crystal structure with the 17-4 Fab and the heparin oligosaccharide DP12; also called G6b ECD; G6b-ECD
B1: binds [1].

B2: His-tagged recombinant anti-G6b-B Fab fragment of antibody 17-4 (Fab, V domains shown)
VH: EVQLQQSGAELVKPGASVKLSCTASGFNIKETYIHWVKQRPEQGLEWIGRIDPADVYGRYDPKFQGKATITADTSSNSAYLQVSSLTSEDTAVYYCARSYGSSYGIDYWGQGTSVTVSS
VL: DIQMTQTTSSLSASLGDRVTISCRASQDISNYLNWYQQKPDGTVKLLIYYTSTLHSGVPSRFSGSGSGTDYSLTISNLEQEDVATYFCQQGYTLPWTFGGGTKLEIKR
notes: also called 17-4 Fab; 17-4 Fabs
Binder B2 has a Kd [2] of 0.126 nM and a Kd [3] of 0.262 nM.

B3: anti-G6b mouse monoclonal antibody 17-4 (antibody, mouse IgG1, kappa, V domains shown)
VH: EVQLQQSGAELVKPGASVKLSCTASGFNIKETYIHWVKQRPEQGLEWIGRIDPADVYGRYDPKFQGKATITADTSSNSAYLQVSSLTSEDTAVYYCARSYGSSYGIDYWGQGTSVTVSS
VL: DIQMTQTTSSLSASLGDRVTISCRASQDISNYLNWYQQKPDGTVKLLIYYTSTLHSGVPSRFSGSGSGTDYSLTISNLEQEDVATYFCQQGYTLPWTFGGGTKLEIKR
notes: The entries may include leader peptides, since VH CDR2 residues are numbered 69 and 71; no cleavage site is stated; also called exemplary antibody 17-4; mAb 17-4
B3: no binding (tested: 10 µg/ml) [4].
